{
  "source": "paper PMC8476121",
  "about": "(2021)",
  "target": "NB88",
  "assay": "SPR",
  "data": [
    {"binder": "CaSR ECD (extracellular domain of human calcium-sensing receptor) (domain or fragment) YGPDQRAQKKGDIILGGLFPIHFGVAAKDQDLKSRPESVECIRYNFRGFRWLQAMIFAIEEINSSPALLPNLTLGYRIFDTCNTVSKALEATLSFVAQNKIDSLNLDEFCNCSEHIPSTIAVVGATGSGVSTAVANLLGLFYIPQVSYASSSRLLSNKNQFKSFLRTIPNDEHQATAMADIIEYFRWNWVGTIAADDDYGRPGIEKFREEAEERDICIDFSELISQYSDEEEIQHVVEVIQNSTAKVIVVFSSGPDLEPLIKEIVRRNITGKIWLASEAWASSSLIAMPQYFHVVGGTIGFALKAGQIPGFREFLKKVHPRKSVHNGFAKEFWEETFNCHLQEGAKGPLPVDTFLRGHEESGDRFSNSSTAFRPLCTGDENISSVETPYIDYTHLRISYNVYLAVYSIAHALQDIYTCLPGRGLFTNGSCADIKKVEAWQVLKHLRHLNFTNNMGEQVTFDECGDLVGNYSIINWHLSPEDGSIVFKEVGYYNVYAKKGERLFINEEKILWSGFSREVPFSNCSRDCLAGTRKGIIEGEPTCCFECVECPDGEYSDETDASACNKCPDDFWSNENHTSCIAKEIEFLS", "values": [
      {"measurement": "Kd", "value": 3.9, "unit": "nM"}
    ]}
  ]
}
